What all share (assay type): in vivo, mouse
Test [1] deals with 8-week old (young) wild-type (C57BL/6) mice. In words: Contextual and cued fear conditioning in young mice treated with recombinant human LTA4H protein. The method, then: Mice were brought into the testing room immediately before their trial to avoid exposure to sounds and scents from testing. Day 1: For training, mice were placed in the chambers, bright house light and fan on, for 2 minutes. Then an auditory cue (2000 Hz, 70 dB, conditioned stimulus (CS)) was presented for 30 seconds. A 2 second foot shock (0.6 mA; unconditioned stimulus (US)) was administered for the final 2 seconds of the CS. This procedure was repeated once, each after a 2 minute interval, and the mouse was removed from the chamber 30 seconds after the second shock. The pans, chamber walls and grid floors were cleaned with 70% ethanol between trials. Day 2: Seventy-two hours after the training, the mouse was returned to the same chamber in which the training occurred (memory for context), and freezing behavior was recorded for 3 min. The mouse was returned to its home cage. The pans, chamber walls, and grid floors were cleaned with 70% ethanol between trials. Day 3: 24 hours after context testing, the mouse was returned to the same chamber and freezing was recorded in a novel environment (altered context) and in response to the cue (memory for cue). […] The mouse was placed in the novel environment and freezing was recorded for 2 minutes. The auditory cue (2000 Hz, 70 dB, CS) was then presented for 30 seconds, and freezing was again recorded for 2 minutes. […]

Test [2] deals with microglia in the hippocampus. The experiment in a line: Histology of microglia markers (Iba1, CD68) in the hippocampus of young mice. The method, then:
Brains were collected following saline perfusion and separated by mid-sagittal slice with one-half drop fixed in freshly prepared 4% PFA. PFA was changed to 30% sucrose 24-48 hours later. A second change to 30% sucrose occurred 24 hours later. The second half was dissected into hippocampus and cortex and then snap frozen on dry ice.
(§1) Brain tissue was sectioned or lysed and analyzed for markers of neurogenesis and aging by standard histological and biochemical methods, including qRT-PCR, Western blot, ELISA, and immunohistochemistry.
The initial study in young, 8-week old wild-type (WT; C57BL/6) mice was repeated in a second cohort of mice with additional timepoints and readouts. Mice were homogenized between 3 treatment groups by body weight. Group 1 (Vehicle) was injected intravenously (IV) with PBS control 3 times per week for 6 weeks, group 2 (LTA4H Pulse) with recombinant human LTA4H protein daily for 7 consecutive days, and group 3 (LTA4H Continuous) with recombinant human LTA4H protein 3 times per week for 6 weeks. In week 4 after the initiation of dosing, mice in all treatment groups were injected IP with BrdU (5-bromo-2′-deoxyuridine) formulated in PBS (phosphate buffered saline) at a final concentration of 10 mg/mL dosed at 150 mg/kg for 5 days. […]

Test [3] has as its system mRNA levels of neuronal and glial genes. The experiment in a line: qPCR of mRNA levels in young mice treated with recombinant human LTA4H protein. As to conditions: paradigm 1; vs PBS. The method, then:
as §1
Young, 8-week old wild-type (WT; C57BL/6) mice were homogenized between groups by body weight. Following group determination, mice were injected intraperitoneally (IP) with BrdU (5-bromo-2′-deoxyuridine) formulated in PBS (phosphate buffered saline) at a final concentration of 10 mg/mL dosed at 150 mg/kg for 5 days Immediately following the BrdU dosing, group 1 was injected intravenously (IV) with PBS control and group 2 with recombinant human LTA4H protein daily for 7 consecutive days. One week after the completion of LTA4H administration, in week 3, mice in both treatment groups were injected IP with EdU (5-ethynyl-2′-deoxyuridine) formulated in PBS at a final concentration of 10 mg/mL and dosed at 50 mg/kg for 5 days. Behavioral assays were executed in week 5 and 6, and animals were sacrificed, and tissues collected immediately after completion of behavior testing in week 6. FIG. 3 depicts the treatment paradigm and injection timing for the study.
FIG. 9 reports the results of quantitative polymerase chain reaction (qPCR) quantifying mRNA levels of vesicular glutamate […] (vglut1), synapsin 1 (syn1), synaptophysin (syp), early growth response 1 (egr1), doublecortin (dcx), beta III tubulin (tuj1), glial acidic fibrillary protein (gfap), SRY-Box 2 (sox2), oligodendrocyte transcription factor 2 in 3 months old (young) wild-type (C57BL/6) mice treated with recombinant human LTA4H protein or phosphate buffered saline (PBS) control. […] Egr1 is an immediate early gene and a reduction in expression is indicative of a depression of neuronal activity. Tuj1 is a neuronal marker and the reduction in expression points to detrimental effects on neurons. […] Overall the decreases in neuronal markers and trends towards decreases in oligodendrocyte markers indicate a detrimental effect on neuronal activity and integrity in LTA4H treated animals. […]

B1: recombinant human LTA4H: Recombinant human LTA4H (Bio-techne, 4008-SN), leukotriene A4 hydrolase enzyme, dosed by tail vein i.v. injection (protein, UniProt P09960 2-611, looked up)
Leukotriene A-4 hydrolase: PEIVDTCSLASPASVCRTKHLHLRCSVDFTRRTLTGTAALTVQSQEDNLRSLVLDTKDLTIEKVVINGQEVKYALGERQSYKGSPMEISLPIALSKNQEIVIEISFETSPKSSALQWLTPEQTSGKEHPYLFSQCQAIHCRAILPCQDTPSVKLTYTAEVSVPKELVALMSAIRDGETPDPEDPSRKIYKFIQKVPIPCYLIALVVGALESRQIGPRTLVWSEKEQVEKSAYEFSETESMLKIAEDLGGPYVWGQYDLLVLPPSFPYGGMENPCLTFVTPTLLAGDKSLSNVIAHEISHSWTGNLVTNKTWDHFWLNEGHTVYLERHICGRLFGEKFRHFNALGGWGELQNSVKTFGETHPFTKLVVDLTDIDPDVAYSSVPYEKGFALLFYLEQLLGGPEIFLGFLKAYVEKFSYKSITTDDWKDFLYSYFKDKVDVLNQVDWNAWLYSPGLPPIKPNYDMTLTNACIALSQRWITAKEDDLNSFNATDLKDLSSHQLNEFLAQTLQRAPLPLGHIKRMQEVYNFNAINNSEIRFRWLRLCIQSKWEDAIPLALKMATEQGRMKFTRPLFKDLAAFDKSHDQAVRTYQEHKASMHPVTAMLVGKDLKVD
On to B1, for which the “percent time freezing during contextual testing” value in test [1] (72 hours after training, IV daily for 7 consecutive days, vs PBS) is “significantly decreased freezing”. Further, the “percent time freezing during cued testing” value in test [1] (pre/post cue tone, difference between treatment groups) is recorded as “no significant difference between treatment groups”. Also, in test [2] (paradigm 2: pulse dosing, relative to vehicle PBS), the “average number of Iba1-labeled cells in the hippocampus” value is “significant increase”. Also, the “average number of CD68-labeled cells in the hippocampus” value in test [2] (paradigm 3: 10 days following pulse dosing (IV daily, 7 days), relative to PBS) is listed as “significant increase”. Moreover, in test [3], the “egr1 mRNA expression (qPCR)” value is reported as “significant decrease”, the “olig 2 mRNA expression (qPCR)” value was “trend towards a decrease” and the “tuj1 mRNA expression (qPCR)” value is given as “significant decrease”.
